Measured values as given in publication PMC4794604 (Molecules and Cells, 2016).

Tests used:
Experiment in all cases: ELISA
Fc-fused ECD of PDGFRβ = Fc-fused ECD of PDGFRβ (Homo sapiens (assumed), UniProt P09619)
[1] = target: Fc-fused ECD of FGFR3 (IIIc) (Homo sapiens (assumed), UniProt P22607)
Fc-fused ECD of HER3 = Fc-fused ECD of HER3 (Homo sapiens (assumed), UniProt P21860)
Fc-fused ECD of VEGFR2 = Fc-fused ECD of VEGFR2 (Homo sapiens (assumed), UniProt P35968)
Fc-fused ECD of HER4 = Fc-fused ECD of HER4 (Homo sapiens (assumed), UniProt Q15303)
Fc-fused ECD of EGFR = Fc-fused ECD of EGFR (Homo sapiens (assumed), UniProt P00533)
Fc-fused ECD of IGF-IR = Fc-fused ECD of IGF-IR (Homo sapiens (assumed), UniProt P08069)
HGFR/c-Met ECD-Fc = HGFR/c-Met ECD-Fc (Homo sapiens (assumed), UniProt P08581)

Measured: binding result

Chain of Fc-fused ECD of HER3 (P21860 20-643): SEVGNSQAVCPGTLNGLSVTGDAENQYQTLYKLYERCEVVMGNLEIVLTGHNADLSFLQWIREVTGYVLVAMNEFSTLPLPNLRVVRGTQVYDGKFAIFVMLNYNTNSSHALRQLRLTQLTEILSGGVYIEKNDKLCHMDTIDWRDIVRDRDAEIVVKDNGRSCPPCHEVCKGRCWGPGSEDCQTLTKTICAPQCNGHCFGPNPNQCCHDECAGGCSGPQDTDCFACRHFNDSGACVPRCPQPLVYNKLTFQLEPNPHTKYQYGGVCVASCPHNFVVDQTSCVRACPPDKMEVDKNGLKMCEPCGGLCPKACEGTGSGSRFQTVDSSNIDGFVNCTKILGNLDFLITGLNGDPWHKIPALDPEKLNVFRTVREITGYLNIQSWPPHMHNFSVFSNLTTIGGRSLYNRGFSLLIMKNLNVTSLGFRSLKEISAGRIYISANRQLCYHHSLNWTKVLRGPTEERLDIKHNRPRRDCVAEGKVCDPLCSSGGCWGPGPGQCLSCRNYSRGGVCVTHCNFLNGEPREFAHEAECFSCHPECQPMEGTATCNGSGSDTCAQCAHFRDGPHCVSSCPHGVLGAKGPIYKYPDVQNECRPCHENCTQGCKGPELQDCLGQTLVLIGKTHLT
Chain of Fc-fused ECD of IGF-IR (P08069 741-935): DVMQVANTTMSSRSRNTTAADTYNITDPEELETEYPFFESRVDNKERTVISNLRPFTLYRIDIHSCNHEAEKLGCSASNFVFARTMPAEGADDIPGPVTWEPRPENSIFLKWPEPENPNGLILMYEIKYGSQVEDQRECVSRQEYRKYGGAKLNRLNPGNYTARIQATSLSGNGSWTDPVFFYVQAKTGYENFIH
Chain of Fc-fused ECD of PDGFRβ (P09619 33-532): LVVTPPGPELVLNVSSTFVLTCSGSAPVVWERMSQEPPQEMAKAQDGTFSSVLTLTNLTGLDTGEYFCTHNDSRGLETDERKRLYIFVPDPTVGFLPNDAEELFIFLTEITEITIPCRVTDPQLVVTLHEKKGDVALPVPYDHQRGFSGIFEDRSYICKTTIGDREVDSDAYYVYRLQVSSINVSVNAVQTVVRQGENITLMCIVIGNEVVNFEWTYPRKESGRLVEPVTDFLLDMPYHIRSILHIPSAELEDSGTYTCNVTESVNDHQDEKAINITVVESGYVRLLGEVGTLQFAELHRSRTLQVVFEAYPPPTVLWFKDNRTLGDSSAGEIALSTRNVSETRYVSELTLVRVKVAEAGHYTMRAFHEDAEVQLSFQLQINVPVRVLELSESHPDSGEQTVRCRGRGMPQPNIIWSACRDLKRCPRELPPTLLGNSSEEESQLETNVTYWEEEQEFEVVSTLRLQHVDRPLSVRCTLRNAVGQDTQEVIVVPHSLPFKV
Chain of Fc-fused ECD of VEGFR2 (P35968 20-764): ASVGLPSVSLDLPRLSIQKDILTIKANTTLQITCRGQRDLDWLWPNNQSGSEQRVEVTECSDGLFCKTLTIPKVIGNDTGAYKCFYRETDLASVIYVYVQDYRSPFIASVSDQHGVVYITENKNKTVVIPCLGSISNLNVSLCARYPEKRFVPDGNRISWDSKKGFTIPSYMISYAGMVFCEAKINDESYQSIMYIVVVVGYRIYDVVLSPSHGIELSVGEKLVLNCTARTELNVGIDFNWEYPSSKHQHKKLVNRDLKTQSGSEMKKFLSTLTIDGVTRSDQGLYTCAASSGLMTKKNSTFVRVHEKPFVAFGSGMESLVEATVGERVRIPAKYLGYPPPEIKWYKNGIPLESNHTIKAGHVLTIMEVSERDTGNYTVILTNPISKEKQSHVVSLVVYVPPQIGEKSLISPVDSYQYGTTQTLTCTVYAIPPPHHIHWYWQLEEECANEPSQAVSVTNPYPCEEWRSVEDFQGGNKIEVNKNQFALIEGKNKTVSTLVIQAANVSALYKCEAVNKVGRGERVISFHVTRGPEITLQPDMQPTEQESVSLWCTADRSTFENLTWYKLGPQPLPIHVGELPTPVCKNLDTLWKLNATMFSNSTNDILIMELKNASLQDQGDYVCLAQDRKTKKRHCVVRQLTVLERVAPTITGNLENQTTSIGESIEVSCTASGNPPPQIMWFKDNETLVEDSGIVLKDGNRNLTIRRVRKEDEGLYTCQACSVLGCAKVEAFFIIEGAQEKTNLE
Chain of HGFR/c-Met ECD-Fc (P08581 25-932): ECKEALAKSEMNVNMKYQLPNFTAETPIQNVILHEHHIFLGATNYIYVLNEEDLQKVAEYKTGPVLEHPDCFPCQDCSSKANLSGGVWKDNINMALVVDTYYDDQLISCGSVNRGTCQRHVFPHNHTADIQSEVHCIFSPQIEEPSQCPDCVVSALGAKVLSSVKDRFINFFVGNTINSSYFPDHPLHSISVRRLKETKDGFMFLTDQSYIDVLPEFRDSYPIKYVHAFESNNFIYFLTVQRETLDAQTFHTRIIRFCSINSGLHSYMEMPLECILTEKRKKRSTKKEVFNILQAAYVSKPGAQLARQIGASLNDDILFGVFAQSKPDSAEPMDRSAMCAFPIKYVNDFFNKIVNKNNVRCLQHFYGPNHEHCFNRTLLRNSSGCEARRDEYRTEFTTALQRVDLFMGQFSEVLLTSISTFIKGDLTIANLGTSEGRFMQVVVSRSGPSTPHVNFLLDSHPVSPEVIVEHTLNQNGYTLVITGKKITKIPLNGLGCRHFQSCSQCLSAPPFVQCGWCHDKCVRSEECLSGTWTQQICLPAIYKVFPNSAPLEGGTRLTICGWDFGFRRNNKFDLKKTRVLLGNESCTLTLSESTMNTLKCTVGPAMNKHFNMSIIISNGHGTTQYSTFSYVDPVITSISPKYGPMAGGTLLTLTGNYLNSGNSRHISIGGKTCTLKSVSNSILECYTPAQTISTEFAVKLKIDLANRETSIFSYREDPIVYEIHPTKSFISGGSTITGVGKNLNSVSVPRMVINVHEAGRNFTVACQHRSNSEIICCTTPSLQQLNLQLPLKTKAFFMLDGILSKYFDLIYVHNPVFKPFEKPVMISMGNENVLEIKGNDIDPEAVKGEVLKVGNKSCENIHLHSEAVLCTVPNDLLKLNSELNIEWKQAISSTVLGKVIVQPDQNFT
Chain of Fc-fused ECD of HER4 (Q15303 26-651): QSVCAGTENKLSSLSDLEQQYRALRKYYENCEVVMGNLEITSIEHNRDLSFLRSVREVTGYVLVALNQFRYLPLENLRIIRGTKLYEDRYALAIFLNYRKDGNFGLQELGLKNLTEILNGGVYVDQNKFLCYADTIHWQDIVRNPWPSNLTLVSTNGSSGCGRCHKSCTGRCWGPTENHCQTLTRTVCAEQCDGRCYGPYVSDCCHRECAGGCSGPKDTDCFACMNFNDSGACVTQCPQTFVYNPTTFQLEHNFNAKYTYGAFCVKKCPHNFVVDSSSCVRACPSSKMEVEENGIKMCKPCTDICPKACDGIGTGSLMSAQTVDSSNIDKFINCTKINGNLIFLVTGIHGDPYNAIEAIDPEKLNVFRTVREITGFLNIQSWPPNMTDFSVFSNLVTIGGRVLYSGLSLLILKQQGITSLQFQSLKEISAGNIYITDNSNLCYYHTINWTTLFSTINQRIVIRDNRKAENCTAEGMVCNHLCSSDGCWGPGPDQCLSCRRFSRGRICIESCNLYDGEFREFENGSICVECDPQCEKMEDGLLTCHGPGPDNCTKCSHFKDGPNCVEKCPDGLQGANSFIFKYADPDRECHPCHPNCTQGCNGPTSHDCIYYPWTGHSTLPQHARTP
Chain of Fc-fused ECD of FGFR3 (IIIc) (P22607 23-375): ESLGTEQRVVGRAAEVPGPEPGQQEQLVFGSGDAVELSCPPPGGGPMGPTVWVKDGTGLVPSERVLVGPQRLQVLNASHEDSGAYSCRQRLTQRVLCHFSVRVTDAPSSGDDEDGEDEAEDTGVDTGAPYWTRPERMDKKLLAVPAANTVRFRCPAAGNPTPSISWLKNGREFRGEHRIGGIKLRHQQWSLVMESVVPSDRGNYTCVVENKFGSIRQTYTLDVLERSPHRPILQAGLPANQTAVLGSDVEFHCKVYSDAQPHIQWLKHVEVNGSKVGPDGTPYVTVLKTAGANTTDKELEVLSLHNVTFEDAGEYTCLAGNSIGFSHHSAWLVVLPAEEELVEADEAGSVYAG

B1: AH06, variant of hu4D5 from library LN02, IgG format (antibody, V domains shown)
VH: EVQLVESGGGLVQPGGSLRLSCAASGFNIKDTYIHWVRQAPGKGLEWVARIYPTNGYTRYADSVKGRFTISADTSKNTAYLQMNSLRAEDTAVYYCSRWGGWGFYAFALWGQGTLVTVSS
VL: not shown
no binding (tested: 30 nM): all assays above
